Experimental findings from patent US20240132577A1 (US Dept. of Health and Human Services, published 2024) are described below.

Holding throughout (experiment): cell-based or functional assay
The target of assay [1] is T1, SARS-CoV-2 S protein (C-terminally truncated, on pseudotyped virus) (SARS-CoV-2 (Wuhan-Hu-1), UniProt P0DTC2 14-1254).
The target in assay [2] is T1, SARS-CoV-2 S protein (C-terminally …). The source holds these as a separate data set.
Assay [3] has the same target. The source holds these as a separate data set.
The target of assay [4] is SARS-CoV-2 S protein R683G (on pseudotyped virus) (SARS-CoV-2, UniProt P0DTC2 14-1254).
Assay [5] concerns the target SARS-CoV-2 S protein K417N (on pseudotyped virus) (SARS-CoV-2, UniProt P0DTC2 14-1254).
The target of assay [6] is SARS-CoV-2 S protein E484K (on pseudotyped virus) (SARS-CoV-2, UniProt P0DTC2 14-1254).
The target of assay [7] is SARS-CoV-2 S protein N501Y (on pseudotyped virus) (SARS-CoV-2, UniProt P0DTC2 14-1254).
Assay [8] has as its target SARS-CoV-2 S protein K417N + E484K + N501Y (on pseudotyped virus) (SARS-CoV-2, UniProt P0DTC2 14-1254).

Several values for one entry are separate records, joined by “and”; a condition that tells them apart may be missing. Identical values can stand only once. Like-named read-outs stand apart in the source and are kept apart here. Where only a bound is given, the exact number is not on record here.

B1: Nb43 (VHH)
VHH: QVQLQESGGGLVQAGDSLKLSCAASGRTFSDSAMGWFRQAPGEEREFVAVITWNGGTTYYADSVKGRFTISRDDAKNTVYLQMNSLKPEDTAVYYCAADTSRWDYSLTYHYTREYNYWGQGTQVTVSS
Regarding B1, in assay [1], the “IC50 (pseudovirus neutralization)” value was 281 ng/ml and 20.9 nM; the “IC90 (pseudovirus neutralization)” value was 5330 ng/ml and 395 nM.

B2: Nb17-tri-IgG1 (Fc fusion)
chain: QVQLQESGGGLVQTGGSLRLSCAASGRTFGIYRMGWFRQAPGKEREFVAAITSSADTAQYRDSVKGRFAISRDNAKNTLYLQMNSLKPEDTAIYYCAARDPTTLEYGNWGQGTQVTVSSGGGGSGGGGSGGGGSQVQLQESGGGLVQTGGSLRLSCAASGRTFGIYRMGWFRQAPGKEREFVAAITSSADTAQYRDSVKGRFAISRDNAKNTLYLQMNSLKPEDTAIYYCAARDPTTLEYGNWGQGTQVTVSSGGGGSGGGGSGGGGSQVQLQESGGGLVQTGGSLRLSCAASGRTFGIYRMGWFRQAPGKEREFVAAITSSADTAQYRDSVKGRFAISRDNAKNTLYLQMNSLKPEDTAIYYCAARDPTTLEYGNWGQGTQVTVSSDKTHTCPPCPAPELLGGPSVFLFPPKPKDTLMISRTPEVTCVWDVSHEDPEVKFNWYVDGVEVHNAKTKPREEQYNSTYRWSVLTVLHQDWLNGKEYKCKVSNKALPAPIEKTISKAKGQPREPQVYTLPPSREEMTKNQVSLTCLVKGFYPSDIAVEWESNGQPENNYKTTPPVLDSDGSFFLYSKLTVDKSRWQQGNVFSCSVMHEALHNHYTQKSLSLSPGKHHHHHH
As for B2, in assay [2], the “IC50 (pseudovirus neutralization)” value is 1.24 ng/ml and 18 nM. Further, the “IC90 (pseudovirus neutralization)” value in assay [2] was 4.7 ng/ml and 68.2 nM. The “IC50 (variant pseudovirus neutralization)” value in assay [3] is 0.015 nM; in assay [4], 0.004 nM; in assay [5], 0.008 nM; in assay [6], 50 nM; in assay [7], 0.01 nM; in assay [8], 47.4 nM.

B3: Nb19-tri-IgG1 (Fc fusion)
chain: QVQLQESGGGLVQAGGSLRLSCAASGSGFSIHAMGWYRQAPGKQREFVAVVGHKTNYADSVKGRFTISRDVGKNTVELQMNSLKVEDTAVYYCYCNTIVTMTGVPDAVWGQGTQVTVSSGGGGSGGGGSGGGGSQVQLQESGGGLVQAGGSLRLSCAASGSGFSIHAMGWYRQAPGKQREFVAVVGHKTNYADSVKGRFTISRDVGKNTVELQMNSLKVEDTAVYYCYCNTIVTMTGVPDAVWGQGTQVTVSSGGGGSGGGGSGGGGSQVQLQESGGGLVQAGGSLRLSCAASGSGFSIHAMGWYRQAPGKQREFVAVVGHKTNYADSVKGRFTISRDVGKNTVELQMNSLKVEDTAVYYCYCNTIVTMTGVPDAVWGQGTQVTVSSDKTHTCPPCPAPELLGGPSVFLFPPKPKDTLMISRTPEVTCVWDVSHEDPEVKFNWYVDGVEVHNAKTKPREEQYNSTYRWSVLTVLHQDWLNGKEYKCKVSNKALPAPIEKTISKAKGQPREPQVYTLPPSREEMTKNQVSLTCLVKGFYPSDIAVEWESNGQPENNYKTTPPVLDSDGSFFLYSKLTVDKSRWQQGNVFSCSVMHEALHNHYTQKSLSLSPGKHHHHHH
Turning to B3, the “IC50 (pseudovirus neutralization)” value in assay [2] was 0.65 ng/ml and 9.38 nM. The “IC90 (pseudovirus neutralization)” value in assay [2] is 3.96 ng/ml and 57.6 nM. Besides, the “IC50 (variant pseudovirus neutralization)” value in assay [3] came out at 0.012 nM; in assay [4], 0.003 nM; in assay [5], 0.006 nM; in assay [6] it was 0.095 nM; in assay [7] it was 0.01 nM; in assay [8], 0.115 nM.

B4: Nb6 (VHH)
VHH: QVQLQESGGGLVQAGGSLRLSCAASGNIANSNSMAWWRQTPGNQHERVAIISHGVTNYADSVKGRFTVSRDNAKNTLYLQMNNLKPEDTAAYYCYADLFGNTYWGQGTQVTVSS
With B4, in assay [1], the “IC50 (pseudovirus neutralization)” value was 141 ng/ml and 10.5 nM; the “IC90 (pseudovirus neutralization)” value was 354 ng/ml and 26.3 nM.

B5: Nb47 (VHH)
VHH: QVQLQESGGGLVQAGGSLRLSCAASGRTLSRYSMSWFRQAPGKEREFVAGIRWSGSNTYYADSMKQRFTISQDNVKNTVHLQMNSLKPEDTAVYYCAATSRSDHYLNAVAWTLPNEYDYWGQGTQVTVSS
As for B5, in assay [1], the “IC50 (pseudovirus neutralization)” value was 731 ng/ml and 54.2 nM; the “IC90 (pseudovirus neutralization)” value is > 10000 ng/ml and > 500 nM.

B6: Nb7 (VHH)
VHH: QVQLQESGGGLVQAGDSLRLSCLSSERTFRRYGIAWFRQAPGKEREFVAAVDRSHSQTNYADFVQGRFTISTVYAKNMVYLQMNSLKPEDTAVYYCAAASYEKGSDYTSWNTDRGYDYWGQGTQVTVSS
In the case of B6, in assay [1], the “IC50 (pseudovirus neutralization)” value is 43 ng/ml and 3.2 nM; the “IC90 (pseudovirus neutralization)” value was 451 ng/ml and 33.4 nM.

B7: Nb15-tri-IgG1 (Fc fusion)
chain: QVQLQESGGGLVQAGGSLRVSCAASGLPFSDYLMGWFRQAPGKEREYVAAISQNGGHTYADSVLGRFTISRDNAKNTVYLQMNMLTPGDTAVYSCAARRPGGGRWDAAHDYNYWGQGTQVTVSSGGGGSGGGGSGGGGSQVQLQESGGGLVQAGGSLRVSCAASGLPFSDYLMGWFRQAPGKEREYVAAISQNGGHTYADSVLGRFTISRDNAKNTVYLQMNMLTPGDTAVYSCAARRPGGGRWDAAHDYNYWGQGTQVTVSSGGGGSGGGGSGGGGSQVQLQESGGGLVQAGGSLRVSCAASGLPFSDYLMGWFRQAPGKEREYVAAISQNGGHTYADSVLGRFTISRDNAKNTVYLQMNMLTPGDTAVYSCAARRPGGGRWDAAHDYNYWGQGTQVTVSSDKTHTCPPCPAPELLGGPSVFLFPPKPKDTLMISRTPEVTCVWDVSHEDPEVKFNWYVDGVEVHNAKTKPREEQYNSTYRWSVLTVLHQDWLNGKEYKCKVSNKALPAPIEKTISKAKGQPREPQVYTLPPSREEMTKNQVSLTCLVKGFYPSDIAVEWESNGQPENNYKTTPPVLDSDGSFFLYSKLTVDKSRWQQGNVFSCSVMHEALHNHYTQKSLSLSPGKHHHHHH
Consider B7, for which the “IC50 (pseudovirus neutralization)” value in assay [2] is 10 ng/ml and 142 nM. In addition, in assay [2], the “IC90 (pseudovirus neutralization)” value was 26.9 ng/ml and 381 nM. Moreover, the “IC50 (variant pseudovirus neutralization)” value was 0.073 nM in assay [3]; 0.013 nM in assay [4]; 0.027 nM in assay [5]; 0.041 nM in assay [6]; 0.021 nM in assay [7]; 0.03 nM in assay [8].

B8: mNb35 (VHH)
VHH: QVQLVESGGGLVQAGGSLRLSCAASGRTFSKYAMGWFRQAPGKERKFVATISWSGDSAFYADSVKGRFTISRDNARNTVYLQMNSLKPEDTAVYYCTADRGMGYGDFMDYWGQGTSVTVSS
With B8, in assay [1], the “IC50 (pseudovirus neutralization)” value was 209 ng/ml and 15.5 nM; the “IC90 (pseudovirus neutralization)” value was 692 ng/ml and 51.3 nM.
